Laboratory results published in article PMC3965211, “The Kinesin-12 Kif15 is a processive track-switching tetramer” (eLife, 2014).

What was measured:
[1] = molecular target: the molecule itself; test: native gel or EMSA; 4-16% Native-PAGE gel stained with coomassie
[2] = molecular target: the molecule itself; test: glycerol gradient ultracentrifugation; 5-40% glycerol gradient, 35 mM sodium phosphate buffer, 300 mM NaCl, 1 mM DTT, 4°C, 15 hr; tetramer to dimers
[3] = molecular target: taxol-stabilised microtubules; test: co-sedimentation; microtubule sedimentation, 15 nM tetrameric hKif15 with 30 nM dimeric hTpx2, AMP-PNP, 35 mM sodium phosphate buffer pH 7.0, 1 mM MgCl2, 1 mM EGTA, 1 mM DTT, 20 min at room temperature; conditions: both partners purified
taxol-stabilised microtubules, sequence (chain, as listed by the source, chain 1 of 2): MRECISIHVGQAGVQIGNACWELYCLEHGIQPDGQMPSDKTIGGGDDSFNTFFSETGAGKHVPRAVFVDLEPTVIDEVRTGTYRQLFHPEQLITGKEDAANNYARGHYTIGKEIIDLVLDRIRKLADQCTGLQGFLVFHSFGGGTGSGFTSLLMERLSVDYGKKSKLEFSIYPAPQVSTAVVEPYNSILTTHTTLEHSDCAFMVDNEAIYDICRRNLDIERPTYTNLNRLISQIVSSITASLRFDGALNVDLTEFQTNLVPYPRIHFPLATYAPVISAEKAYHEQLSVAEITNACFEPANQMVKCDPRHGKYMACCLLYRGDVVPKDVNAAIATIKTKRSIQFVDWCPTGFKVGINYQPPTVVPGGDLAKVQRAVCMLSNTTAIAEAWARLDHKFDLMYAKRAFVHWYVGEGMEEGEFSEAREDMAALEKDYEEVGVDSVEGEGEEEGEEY
taxol-stabilised microtubules, sequence (chain, as listed by the source, chain 2 of 2): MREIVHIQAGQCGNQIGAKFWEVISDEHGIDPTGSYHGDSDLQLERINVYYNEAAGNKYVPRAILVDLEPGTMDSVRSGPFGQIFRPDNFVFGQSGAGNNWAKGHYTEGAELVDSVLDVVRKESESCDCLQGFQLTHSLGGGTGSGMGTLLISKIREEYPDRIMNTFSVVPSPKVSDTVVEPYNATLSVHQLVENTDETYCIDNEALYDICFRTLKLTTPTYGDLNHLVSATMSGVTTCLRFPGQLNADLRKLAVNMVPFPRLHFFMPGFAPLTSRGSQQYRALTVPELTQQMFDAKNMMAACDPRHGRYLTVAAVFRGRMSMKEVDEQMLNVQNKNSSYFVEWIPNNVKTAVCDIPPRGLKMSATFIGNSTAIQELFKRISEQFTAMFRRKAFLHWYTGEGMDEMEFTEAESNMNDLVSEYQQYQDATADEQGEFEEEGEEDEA

[4] = molecular target: the molecule itself; test: glycerol gradient ultracentrifugation; 5-40% glycerol gradient, 35 mM sodium phosphate buffer, 0-150 mM NaCl, 1 mM DTT, 4°C, 15 hr; apparent sedimentation coefficients

B1: Full-length human His6-Kif15 (natural protein, UniProt Q9NS87 1-1388, looked up)
chain: MAPGCKTELRSVTNGQSNQPSNEGDAIKVFVRIRPPAERSGSADGEQNLCLSVLSSTSLRLHSNPEPKTFTFDHVADVDTTQESVFATVAKSIVESCMSGYNGTIFAYGQTGSGKTFTMMGPSESDNFSHNLRGVIPRSFEYLFSLIDREKEKAGAGKSFLCKCSFIEIYNEQIYDLLDSASAGLYLREHIKKGVFVVGAVEQVVTSAAEAYQVLSGGWRNRRVASTSMNRESSRSHAVFTITIESMEKSNEIVNIRTSLLNLVDLAGSERQKDTHAEGMRLKEAGNINRSLSCLGQVITALVDVGNGKQRHVCYRDSKLTFLLRDSLGGNAKTAIIANVHPGSRCFGETLSTLNFAQRAKLIKNKAVVNEDTQGNVSQLQAEVKRLKEQLAELASGQTPPESFLTRDKKKTNYMEYFQEAMLFFKKSEQEKKSLIEKVTQLEDLTLKKEKFIQSNKMIVKFREDQIIRLEKLHKESRGGFLPEEQDRLLSELRNEIQTLREQIEHHPRVAKYAMENHSLREENRRLRLLEPVKRAQEMDAQTIAKLEKAFSEISGMEKSDKNQQGFSPKAQKEPCLFANTEKLKAQLLQIQTELNNSKQEYEEFKELTRKRQLELESELQSLQKANLNLENLLEATKACKRQEVSQLNKIHAETLKIITTPTKAYQLHSRPVPKLSPEMGSFGSLYTQNSSILDNDILNEPVPPEMNEQAFEAISEELRTVQEQMSALQAKLDEEEHKNLKLQQHVDKLEHHSTQMQELFSSERIDWTKQQEELLSQLNVLEKQLQETQTKNDFLKSEVHDLRVVLHSADKELSSVKLEYSSFKTNQEKEFNKLSERHMHVQLQLDNLRLENEKLLESKACLQDSYDNLQEIMKFEIDQLSRNLQNFKKENETLKSDLNNLMELLEAEKERNNKLSLQFEEDKENSSKEILKVLEAVRQEKQKETAKCEQQMAKVQKLEESLLATEKVISSLEKSRDSDKKVVADLMNQIQELRTSVCEKTETIDTLKQELKDINCKYNSALVDREESRVLIKKQEVDILDLKETLRLRILSEDIERDMLCEDLAHATEQLNMLTEASKKHSGLLQSAQEELTKKEALIQELQHKLNQKKEEVEQKKNEYNFKMRQLEHVMDSAAEDPQSPKTPPHFQTHLAKLLETQEQEIEDGRASKTSLEHLVTKLNEDREVKNAEILRMKEQLREMENLRLESQQLIEKNWLLQGQLDDIKRQKENSDQNHPDNQQLKNEQEESIKERLAKSKIVEEMLKMKADLEEVQSALYNKEMECLRMTDEVERTQTLESKAFQEKEQLRSKLEEMYEERERTSQEMEMLRKQVECLAEENGKLVGHQNLHQKIQYVVRLKKENVRLAEETEKLRAENVFLKEKKRSES
notes: Kinesin-12 Kif15 (hKlp2), human; complete ORF amplified from a cDNA library of hTERT-RPE1 cells; predicted molecular weight of His6-hKif15 164.8 kDa; A TEV cleavage site lies between His6 and the ORF (His6/TEV element of p11 in a modified pIEx/Bac1 vector); no cleavage is described; Tetramer at physiological ionic strength, dimer at 300 mM NaCl; also called hKif15; His6-hKif15; source: insect SF9 …
- stoichiometry N [1]: 4
- stoichiometry N [2]: 2
- KD with 30 nM dimeric hTpx2 [3]: 490 nM

B2: Full-length human His6-Kif15-eGFP (natural protein, UniProt Q9NS87 1-1388, looked up)
chain: B1 chain
notes: Kinesin-12 Kif15 (hKlp2), human; complete ORF from a cDNA library of hTERT-RPE1 cells, eGFP inserted via AscI/NotI behind the ORF; His6/TEV element before the ORF as in m1; also called hKif15-eGFP; His6-hKif15-eGFP; source: insect SF9 cells (baculovirus), purified (SP-sepharose cation exchange, then Talon/Co-NTA); not shown: His6, N-terminal, kept; eGFP, C-terminal, kept
- stoichiometry N [4]: 4
